For this assay, the target named is Notch-1 (endogenous; p300 or p120 not told) (human (endogenous in HeLa and BxPC3)) (UniProt P46531). Put plainly: co-IP; HA-tagged c-Src wild type, Y416F or Y527F transiently transfected in HeLa; whole-cell lysate, IP with anti-Notch-1, blot with anti-HA and anti-Notch-1.

Some results are limits rather than exact numbers.

The substance “HA-tagged c-Src Y416F (kinase dead) (enzyme)” displayed a fold reduction of binding against wild type c-Src greater than 3 fold.

(Values after article PMC3316571.)
